Molecular target: growth hormone (GH) receptor (mouse) (UniProt P16882)
Assay: cell-based or functional assay

## recombinant rat growth hormone (from UniProt P01244 27-216) (ligand)
  GH receptor mRNA expression levels in the liver (quantitative RT-PCR), 60 minutes after 30 µg subcutaneous rGH (% of level prior to administration): 65
  IGF-I-BP3 mRNA expression levels in the liver (quantitative RT-PCR, % of control), 60 minutes after 30 µg subcutaneous rGH: 250 % increase

Source: patent US20060153798A1
